Assay results reported in US20070020252A1, “Modified protease inhibitors” (priority 2003, published 2007).

Experiments:
[1] = target: T1, human neutrophil elastase (HNE) (Homo sapiens, UniProt P08246); conditions: description statement; cited from earlier work
T1 sequence (P08246 30-267): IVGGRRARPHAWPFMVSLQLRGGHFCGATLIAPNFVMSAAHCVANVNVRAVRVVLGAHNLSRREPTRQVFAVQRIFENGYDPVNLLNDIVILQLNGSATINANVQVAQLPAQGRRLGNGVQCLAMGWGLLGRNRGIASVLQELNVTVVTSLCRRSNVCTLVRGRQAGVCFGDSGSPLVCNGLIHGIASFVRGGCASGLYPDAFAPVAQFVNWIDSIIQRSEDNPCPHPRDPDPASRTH

[2] = Allometric extrapolation of β-phase half-life from mice and rabbits to humans; conditions: 70 Kg human, linear extrapolation from mice and rabbits
Description: Data on in vivo pharmacokinetic parameters obtained from small laboratory mammals (e.g. rodents, dogs, and monkeys) can be extrapolated to humans by interspecies scaling (summarized by Mahmood and Balian, Life Sciences 7: 579-585, 1996 and Clin Pharmacokinet 36:1-11, 1999). A simple allometric approach describes the relationship between bodyweight (W) and a pharmacokinetic parameter of interest (Y) in terms of the power function: Y=aW^b (Equation 4) where a and b are the empirically determined coefficient and exponent of the allometric equation, respectively. […] Further, of the three most important pharmacokinetic parameters (total body clearance, volume of distribution, and t1/2β) typically measured, t1/2β is least well predicted by Equation 4. With these caveats in mind, data presented in Tables 2 and 4 can be used to provide crude estimates of expected t1/2β in humans.
FIG. 10 presents data from Tables 2 and 4 plotted as log [Beta Phase Half-Live] vs log [Body Mass] for unmodified DX-890 (triangles) and mono-PEG30-DX-890 (circles). Linear extrapolations of the experimental data for mice (25 gm) and rabbits (2.5 Kg) to humans (70 Kg) are shown by the solid crosses in the figure. The extrapolated values for β-phase half-lives in humans are ˜5 hours for unmodified DX-890 and ˜14 days for mono-PEG30-DX-890. […]

[3] = Pharmacokinetic study in rabbits: plasma clearance of 125I-labeled protein, SEC of plasma; assay type: in vivo, New Zealand White rabbits
Protocol: Pharmacokinetic properties of DX-890 and PEG-30-DX-890 (conjugation at pH 7.4) were measured by iodinating the proteins and measuring clearance of the radiolabel from circulation in rabbits. The two DX-890 preparations were iodinated with iodine-125 using the iodogen method. After radiolabeling, the two labeled protein preparations were purified from unbound label by size exclusion chromatography (SEC). Fractions from the SEC column having the highest radioactivity were pooled. The purified, radiolabeled preparations were characterized for specific activity by gamma counting and for purity by SEC using a Superose-12 column equipped with an in-line radiation detector.
New Zealand White rabbits (ca. 2.5 Kg) were used for clearance measurements, with one animal used for each of the two labeled protein preparations. The radiolabeled preparation was injected into the animal via an ear vein. One blood sample was collected per animal per time point with early time points at approximately 0, 2.5, 5, 7, 15, 30, 60, and 90 minutes post injection and later time points at 4, 8, 16, 24, 30, 48, 72, 96, 144, 168, and 192 hours post injection. Samples (about 0.5 mL) were collected into anticoagulant (EDTA) containing tubes. Cells were separated from the plasma fraction by centrifugation. The plasma fraction was divided into two aliquots. One plasma aliquot was stored at −70° C. and the other aliquot was kept at 4° C. for immediate analyse's. Sample analyses included radiation counting for clearance rate determinations and SEC chromatography to test for changes in the size distribution of radiolabeled material in vivo (stability).

[4] = Pharmacokinetic study in mice: plasma clearance of 125I-labeled protein, SEC of plasma; assay type: in vivo
Protocol: The pharmacokinetics of DX-890 and the PEGylated DX-890 compounds were measured by iodinating the proteins on available tyrosine residues and measuring their clearance in mice.
Samples were radio-iodinated by the indirect method using the IODO-GEN reagent (method from Pierce Chem. Co., and first described by Chizzonite [J Immunol 147, 1548-1556, 1991; J. Immunol 148, 3117-3124, 1992]). Samples were incubated with the ^125I-NaI solution for 9 min at which time tyrosine (10 mg/mL, a saturated solution) was added to quench the reaction. After about 15 min a 5 μl aliquot was removed as a standard for counting.
For each labeling reaction, the ^125I-labeled material (approx. 0.6 mL) was purified using a single 5 mL D-salt 1800 polyacrylamide column (Pierce Chem. Co.). […] Samples were applied in and columns were eluted with a series of 0.3 mL aliquots. Recovery of applied activity in all protein fractions was >75% and the total recovery of applied activity was >90%. The fractions containing peak levels of labeled protein were pooled for animal injections. To prepare the injectate, the pool was diluted with Tris buffer (pH 7.5) so that the 100 μL injection volume contained about 10 μg of labeled material.
Time of injection and time of sampling were recorded. At sacrifice, samples of 0.5 ml were collected into anticoagulant (0.02 ml EDTA). Cells were spun down and separated from plasma, and cells were stored at −20° C. Plasma was divided into two aliquots, one frozen and one stored at 4° C. for immediate analysis. Analysis included gamma counting of all samples. In addition, analysis was performed for two plasma samples (N=2) at each time point, i.e., 0, and 30 minutes, for ^125I-DX-890, and 0, 30 minutes, and 24 h for the ^125I-DX-890-PEG conjugates. A SEC-HPLC Superose-12 column was used with an in-line radiation detector (FIGS. 4-7).
The solid curves through the sets of data plotted in FIG. 3 are four-parameter, least-squares fits of Equation 3 to the data. Table 3 presents the values for % α Phase, α Phase Half-life, % β Phase, and β Phase Half-life extracted from the least squares fits to the in vivo clearance data set obtained for each of the four compounds tested in mice.

[5] = ear vein injection, bi-exponential fit
[6] = tail vein injection, bi-exponential fit

DX-890: 56 amino acid Kunitz domain polypeptide derived from ITI-D2, inhibitor of human neutrophil elastase, produced in Pichia pastoris (EACNLPIVRGPCIAFFPRWAFDAVKGKCVLFPYGGCQGNGNKFYSEKECREYCGVP)
Ki [1]: 4 pM | extrapolated β-phase half-life in humans [2]: ~5 h | in vivo stability, SEC analysis of plasma [3]: relatively rapid association of label with higher molecular weight plasma components | % α [3, 5]: 75% | % β [3, 5]: 25% | T1/2α [3, 5]: 24 s | T1/2β [3, 5]: 2.75 h | percentage cleared in the β phase [4]: about 15% | α phase half life [4]: about 1 min | β phase half life [4]: about 1 hr | material remaining in circulation ([4]; 30 minutes after injection): less than 20% | α half life ([4]; Table 4 summary): 1 min | β half life ([4]; Table 4 summary): 1.32 h | α Phase Clearance (%) [4, 6]: 84% | α Phase Half-life [4, 6]: 1.0 min | β Phase Clearance (%) [4, 6]: 16% | β Phase Half-life (hr) [4, 6]: 1.3 h | β Phase Half-life (min) [4, 6]: 79 min
